B1: OsHPPD (4-hydroxyphenylpyruvate dioxygenase) (Oryza sativa Japonica Group) (protein)
chain: PPTPTPTATTGAVSAAAAAGENAGFRLVGHRRFVRANPRSDRFQALAFHHVELWCADAASAAGRFAFALGAPLAARSDLSTGNSAHASLLLRSASVAFLFTAPYGGDHGVGADAATTASIPSFSPGAARRFAADHGLAVHAVALRVADAADAFRASVAAGARPAFQPADLGGGFGLAEVELYGDVVLRFVSHPDGADAPFLPGFEGVSNPGAVDYGLRRFDHVVGNVPELAPVAAYISGFTGFHEFAEFTAEDVGTAESGLNSVVLANNAETVLLPLNEPVHGTKRRSQIQTYLDHHGGPGVQHIALASDDVLGTLREMRARSAMGGFEFLAPPPPNYYDGVRRRAGDVLSEEQINECQELGVLVDRDDQGVLLQIFTKPVGDRPTFFLEMIQRIGCMEKDESGQEYQKGGCGGFGKGNFSELFKSIEEYEKSLEAKQAPTVQGS
B2: AtHPPD (4-hydroxyphenylpyruvate dioxygenase) (Arabidopsis thaliana) (protein)
chain: MGHQNAAVSENQNHDDGAASSPGFKLVGFSKFVRKNPKSDKFKVKRFHHIEFWCGDATNVARRFSWGLGMRFSAKSDLSTGNMVHASYLLTSGDLRFLFTAPYSPSLSAGEIKPTTTASIPSFDHGSCRSFFSSHGLGVRAVAIEVEDAESAFSISVANGAIPSSPPIVLNEAVTIAEVKLYGDVVLRYVSYKAEDTEKSEFLPGFERVEDASSFPLDYGIRRLDHAVGNVPELGPALTYVAGFTGFHQFAEFTADDVGTAESGLNSAVLASNDEMVLLPINEPVHGTKRKSQIQTYLEHNEGAGLQHLALMSEDIFRTLREMRKRSSIGGFDFMPSPPPTYYQNLKKRVGDVLSDDQIKECEELGILVDRDDQGTLLQIFTKPLGDRPTIFIEIIQRVGCMMKDEEGKAYQSGGCGGFGKGNFSELFKSIEEYEKTLEAKQLVG

Substrate: O=C(O)C(=O)Cc1ccc(O)cc1
Assay: purified protein
Details: Fe(II)

Protein | Km [µM]
B1 | 40.02
B2 | 44.04

— publication PMC12203613
